Broadly, the Kd is the concentration at which binding is half-saturated.

The source of these data is article PMC10993987 (Molecular Cancer Therapeutics, 2023).

The target in assay [1] is His-tagged Fc-fused human IL12Rβ2 (human) (UniProt Q99665). The assay can be described thus: SPR. (In general: SPR reads the build-up and loss of mass on a sensor chip optically.)
In assay [2] the target is T1, His-tagged Fc-fused human IL12Rβ2 (human, UniProt Q99665 24-622).
T1 sequence (looked up): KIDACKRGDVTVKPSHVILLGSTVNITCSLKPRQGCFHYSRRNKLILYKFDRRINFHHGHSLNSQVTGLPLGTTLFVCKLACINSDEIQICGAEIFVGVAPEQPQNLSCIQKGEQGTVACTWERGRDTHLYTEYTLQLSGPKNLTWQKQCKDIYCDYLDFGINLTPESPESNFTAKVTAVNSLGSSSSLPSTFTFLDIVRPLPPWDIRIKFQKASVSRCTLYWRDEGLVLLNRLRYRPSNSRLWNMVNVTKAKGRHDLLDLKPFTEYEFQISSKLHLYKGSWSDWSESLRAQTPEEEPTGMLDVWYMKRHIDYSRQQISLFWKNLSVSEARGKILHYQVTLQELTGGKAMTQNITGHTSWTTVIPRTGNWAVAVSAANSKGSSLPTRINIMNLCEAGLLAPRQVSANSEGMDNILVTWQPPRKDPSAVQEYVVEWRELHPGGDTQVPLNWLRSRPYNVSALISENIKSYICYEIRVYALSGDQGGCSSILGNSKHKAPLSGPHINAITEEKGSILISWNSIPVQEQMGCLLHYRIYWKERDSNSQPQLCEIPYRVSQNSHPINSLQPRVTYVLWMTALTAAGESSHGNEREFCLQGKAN
The assay can be described thus: SPR.

Consider “proteolytically cleaved XTX301 (active IL12 released from XTX301) (ligand)”, for which the Kd in assay [1] worked out at 7.97 nM.

B1: wild-type recombinant human IL12 (complex)
chain 1: RNLPVATPDPGMFPCLHHSQNLLRAVSNMLQKARQTLEFYPCTSEEIDHEDITKDKTSTVEACLPLELTKNESCLNSRETSFITNGSCLASRKTSFMMALCLSSIYEDLKMYQVEFKTMNAKLLMDPKRQIFLDQNMLAVIDELMQALNFNSETVPQKSSLEEPDFYKTKIKLCILLHAFRIRAVTIDRVMSYLNAS
chain 2: IWELKKDVYVVELDWYPDAPGEMVVLTCDTPEEDGITWTLDQSSEVLGSGKTLTIQVKEFGDAGQYTCHKGGEVLSHSLLLLHKKEDGIWSTDILKDQKEPKNKTFLRCEAKNYSGRFTCWWLTTISTDLTFSVKSSRGSSDPQGVTCGAATLSAERVRGDNKEYEYSVECQEDSACPAAEESLPIEVMVDAVHKLKYENYTSSFFIRDIIKPDPPKNLQLKPLKNSRQVEVSWEYPDTWSTPHSYFSLTFCVQVQGKSKREKKDRVFTDKTSATVICRKNASISVRAQDRYYSSSWSEWASVPCS
Consider B1, for which the Kd in assay [2] is 0.93 nM. In other words, the sub-nanomolar range.
